{
  "source": "paper doi:10.1101/2025.03.13.642734",
  "target": "ExsA-His6 (Pseudomonas aeruginosa) (UniProt P26993)",
  "sequence (P26993 whole entry)": "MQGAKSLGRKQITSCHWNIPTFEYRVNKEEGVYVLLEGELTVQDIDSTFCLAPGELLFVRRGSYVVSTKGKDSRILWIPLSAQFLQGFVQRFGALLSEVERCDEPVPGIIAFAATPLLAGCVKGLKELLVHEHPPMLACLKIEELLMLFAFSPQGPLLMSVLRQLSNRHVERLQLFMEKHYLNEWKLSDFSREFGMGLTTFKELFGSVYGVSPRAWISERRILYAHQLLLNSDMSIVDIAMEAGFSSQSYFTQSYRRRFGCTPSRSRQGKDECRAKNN",
  "data": [
    {"substance": "GST-Dap2 (natural protein)", "values": [
      {"measurement": "EMSA: ExsA-exsC promoter DNA complex with increasing concentrations of GST-Dap2", "value": 1, "unit": "µM"}
    ]}
  ]
}
